First the molecules themselves.
B1: EEHEE_rd4_0469 (parent)
chain: ITIHVNGVTYHFDNPEEAEKFAQKMAKTYQLKMEIHNGEFHME

In the data set the parent is B1. Briefly: folding stability dG (cDNA display proteolysis); higher = more stable. The note with it: PBS, room temperature.
Take ITIHVNGVTYDFDNPEEAEKFAQKMAKTYQLKMEIHNGEFHME: the “folding stability dG” value was 0.692 kcal/mol.

For ITIHVNGVTYIFDNPEEAEKFAQKMAKTYQLKMEIHNGEFHME, the “folding stability dG” value stood at 1.04 kcal/mol.

As to ITIHVNGVTYSFDNPEEAEKFAQKMAKTYQLKMEIHNGEFHME, the “folding stability dG” value worked out at 1.05 kcal/mol.

On to ITIHVNGVTYWFDNPEEAEKFAQKMAKTYQLKMEIHNGEFHME, for which the “folding stability dG” value stood at 1.24 kcal/mol.

As for ITIHVNGVTYMFDNPEEAEKFAQKMAKTYQLKMEIHNGEFHME, the “folding stability dG” value amounted to 1.03 kcal/mol.

Regarding ITIHVNGVTYVFDNPEEAEKFAQKMAKTYQLKMEIHNGEFHME, the “folding stability dG” value was found to be 1.07 kcal/mol.

With ITIHVNGVTYYFDNPEEAEKFAQKMAKTYQLKMEIHNGEFHME, the “folding stability dG” value came to 1.18 kcal/mol.

Regarding ITIHVNGVTYQFDNPEEAEKFAQKMAKTYQLKMEIHNGEFHME, the “folding stability dG” value turned out to be 1.01 kcal/mol.

Consider ITIHVNGVTYEFDNPEEAEKFAQKMAKTYQLKMEIHNGEFHME, for which the “folding stability dG” value was found to be 0.843 kcal/mol.

Turning to ITIHVNGVTYPFDNPEEAEKFAQKMAKTYQLKMEIHNGEFHME, the “folding stability dG” value was found to be 0.279 kcal/mol.

Take ITIHVNGVTYGFDNPEEAEKFAQKMAKTYQLKMEIHNGEFHME: the “folding stability dG” value was 0.636 kcal/mol.

For ITIHVNGVTYFFDNPEEAEKFAQKMAKTYQLKMEIHNGEFHME, the “folding stability dG” value is 1.17 kcal/mol.

Turning to ITIHVNGVTYKFDNPEEAEKFAQKMAKTYQLKMEIHNGEFHME, the “folding stability dG” value amounted to 1.12 kcal/mol.

In the case of ITIHVNGVTYLFDNPEEAEKFAQKMAKTYQLKMEIHNGEFHME, the “folding stability dG” value came to 1.02 kcal/mol.

ITIHVNGVTYAFDNPEEAEKFAQKMAKTYQLKMEIHNGEFHME: the “folding stability dG” value is 1.02 kcal/mol.

For ITIHVNGVTYNFDNPEEAEKFAQKMAKTYQLKMEIHNGEFHME, the “folding stability dG” value worked out at 0.977 kcal/mol.

For ITIHVNGVTYHFDFPEEAEKFAQKMAKTYQLKMEIHNGEFHME, the “folding stability dG” value came out at 1.05 kcal/mol.

Regarding ITIHVNGVTYHFDHPEEAEKFAQKMAKTYQLKMEIHNGEFHME, the “folding stability dG” value turned out to be 0.946 kcal/mol.

As for ITIHVNGVTYHFDQPEEAEKFAQKMAKTYQLKMEIHNGEFHME, the “folding stability dG” value came to 1 kcal/mol.

Regarding ITIHVNGVTYHFDAPEEAEKFAQKMAKTYQLKMEIHNGEFHME, the “folding stability dG” value worked out at 0.947 kcal/mol.

Regarding ITIHVNGVTYHFDMPEEAEKFAQKMAKTYQLKMEIHNGEFHME, the “folding stability dG” value stood at 0.98 kcal/mol.

ITIHVNGVTYHFDPPEEAEKFAQKMAKTYQLKMEIHNGEFHME: the “folding stability dG” value amounted to 0.129 kcal/mol.

Consider ITIHVNGVTYHFDGPEEAEKFAQKMAKTYQLKMEIHNGEFHME, for which the “folding stability dG” value stood at 0.9 kcal/mol.

For the variant ITIHVNGVTYHFDLPEEAEKFAQKMAKTYQLKMEIHNGEFHME, the “folding stability dG” value came to 1.18 kcal/mol.

For ITIHVNGVTYHFDSPEEAEKFAQKMAKTYQLKMEIHNGEFHME, the “folding stability dG” value came out at 1.07 kcal/mol.

As to ITIHVNGVTYHFDYPEEAEKFAQKMAKTYQLKMEIHNGEFHME, the “folding stability dG” value is 0.849 kcal/mol.

For the variant ITIHVNGVTYHFDEPEEAEKFAQKMAKTYQLKMEIHNGEFHME, the “folding stability dG” value worked out at 0.901 kcal/mol.

In the case of ITIHVNGVTYHFDWPEEAEKFAQKMAKTYQLKMEIHNGEFHME, the “folding stability dG” value stood at 1.05 kcal/mol.

Regarding ITIHVNGVTYHFDDPEEAEKFAQKMAKTYQLKMEIHNGEFHME, the “folding stability dG” value was found to be 1.19 kcal/mol.

As to ITIHVNGVTYHFDKPEEAEKFAQKMAKTYQLKMEIHNGEFHME, the “folding stability dG” value was 1.1 kcal/mol.

As to ITIHVNGVTYHFDVPEEAEKFAQKMAKTYQLKMEIHNGEFHME, the “folding stability dG” value worked out at 1.1 kcal/mol.

For the variant ITIHVNGVTYHFDRPEEAEKFAQKMAKTYQLKMEIHNGEFHME, the “folding stability dG” value amounted to 1.09 kcal/mol.

Turning to ITIHVNGVTYHFDIPEEAEKFAQKMAKTYQLKMEIHNGEFHME, the “folding stability dG” value amounted to 1.22 kcal/mol.

Turning to ITIHVNGVTYHFDTPEEAEKFAQKMAKTYQLKMEIHNGEFHME, the “folding stability dG” value amounted to 1.09 kcal/mol.

In the case of ITIHVNGVTYHFDNPFEAEKFAQKMAKTYQLKMEIHNGEFHME, the “folding stability dG” value stood at 1.2 kcal/mol.

With ITIHVNGVTYHFDNPAEAEKFAQKMAKTYQLKMEIHNGEFHME, the “folding stability dG” value turned out to be 1.12 kcal/mol.

With ITIHVNGVTYHFDNPDEAEKFAQKMAKTYQLKMEIHNGEFHME, the “folding stability dG” value is 1.25 kcal/mol.

Take ITIHVNGVTYHFDNPHEAEKFAQKMAKTYQLKMEIHNGEFHME: the “folding stability dG” value came to 1.14 kcal/mol.

As to ITIHVNGVTYHFDNPCEAEKFAQKMAKTYQLKMEIHNGEFHME, the “folding stability dG” value amounted to 1.77 kcal/mol.

ITIHVNGVTYHFDNPGEAEKFAQKMAKTYQLKMEIHNGEFHME: the “folding stability dG” value is 1.02 kcal/mol.

Take ITIHVNGVTYHFNNPEEAEKFAQKMAKTYQLKMEIHNGEFHME: the “folding stability dG” value came out at 1.13 kcal/mol.

Consider ITIHVNGVTYHFQNPEEAEKFAQKMAKTYQLKMEIHNGEFHME, for which the “folding stability dG” value was 1.11 kcal/mol.

For the variant ITIHVNGVTYHFLNPEEAEKFAQKMAKTYQLKMEIHNGEFHME, the “folding stability dG” value stood at 1.28 kcal/mol.

Regarding ITIHVNGVTYHFVNPEEAEKFAQKMAKTYQLKMEIHNGEFHME, the “folding stability dG” value is 1.21 kcal/mol.

Regarding ITIHVNGVTYHFRNPEEAEKFAQKMAKTYQLKMEIHNGEFHME, the “folding stability dG” value was found to be 1.15 kcal/mol.

As to ITIHVNGVTYHFTNPEEAEKFAQKMAKTYQLKMEIHNGEFHME, the “folding stability dG” value amounted to 1.25 kcal/mol.

Take ITIHVNGVTYHFMNPEEAEKFAQKMAKTYQLKMEIHNGEFHME: the “folding stability dG” value was found to be 1.16 kcal/mol.

Turning to ITIHVNGVTYHFYNPEEAEKFAQKMAKTYQLKMEIHNGEFHME, the “folding stability dG” value was found to be 1.23 kcal/mol.

Take ITIHVNGVTYHFINPEEAEKFAQKMAKTYQLKMEIHNGEFHME: the “folding stability dG” value is 1.3 kcal/mol.

Turning to ITIHVNGVTYHFWNPEEAEKFAQKMAKTYQLKMEIHNGEFHME, the “folding stability dG” value was 1.23 kcal/mol.

In the case of ITIHVNGVTYHFGNPEEAEKFAQKMAKTYQLKMEIHNGEFHME, the “folding stability dG” value turned out to be 1.11 kcal/mol.

Consider ITIHVNGVTYHFSNPEEAEKFAQKMAKTYQLKMEIHNGEFHME, for which the “folding stability dG” value was 1.26 kcal/mol.

On to ITIHVNGVTYHFKNPEEAEKFAQKMAKTYQLKMEIHNGEFHME, for which the “folding stability dG” value turned out to be 1.1 kcal/mol.

On to ITIHVNGVTYHFENPEEAEKFAQKMAKTYQLKMEIHNGEFHME, for which the “folding stability dG” value is 1.11 kcal/mol.

As for ITIHVNGVTYHFPNPEEAEKFAQKMAKTYQLKMEIHNGEFHME, the “folding stability dG” value came out at 1.17 kcal/mol.

Regarding ITIHVNGVTYHFCNPEEAEKFAQKMAKTYQLKMEIHNGEFHME, the “folding stability dG” value came out at 1.81 kcal/mol.

ITIHVNGVTYHFANPEEAEKFAQKMAKTYQLKMEIHNGEFHME: the “folding stability dG” value was 1.2 kcal/mol.

In the case of ITIHVNGVTYHFHNPEEAEKFAQKMAKTYQLKMEIHNGEFHME, the “folding stability dG” value is 1.2 kcal/mol.

For ITIHVNGVTYHFFNPEEAEKFAQKMAKTYQLKMEIHNGEFHME, the “folding stability dG” value is 1.15 kcal/mol.
